As a reminder, the EC50 is the midpoint of the concentration-response curve. A high value points to weaker potency.

Experiment [1] has as its target T1, CD3 (Cluster of Differentiation 3 protein), human, on T cells / Jurkat cells (human, UniProt P07766 23-207; P04234 22-171; P09693 23-182).
T1 construct: whole, on cells; part of the TCR-CD3 complex; also called human CD3
The experiment is described as follows: FACS, Jurkat cells, antibody at 50 µg/ml. As to the method:
(§1) The binding affinities of the generated humanized Fab-scFv-Fab bispecific antibodies were determined by FACS analysis. […] (a) Jurkat cells were washed by Staining Buffer (PBS+1% BSA) in round bottom 96-well plate. [0833] (b) Antibody dilutions and cells were added to each well, incubated at 4 degrees for 1 hour. [0834] (c) Cells were spined down at 300 g for 3 minutes, and the supernatants were discarded. [0835] (d) Cells were washed with Staining Buffer. […] (e) Step (d) was repeated and the cells were incubated for 0.5 hours at 4 degrees with secondary antibody in Staining Buffer. [0837] (f) After incubation, step (d)-(e) were repeated. […] (g) Staining Buffer was added and fluorescence signals were recorded by flow cytometry.
(Flow cytometry measures light scatter and fluorescence of single cells or particles in a stream.)

Experiment [2] has as its target T1, CD3 (Cluster of Differentiation 3 …). The experiment is described as follows: FACS, CD3+ T cells isolated from normal donors. As to the method:
To evaluate the binding affinity of the generated chimeric bispecific antibody to T cells, the isolated CD3⁺ T cells were stained by antibodies and the binding affinity was determined by FACS analysis. The protocol of FACS analysis is described as follows: [0785] (a) CD3⁺ T cells were isolated from normal donors. [0786] (b) The isolated CD3⁺ T cells were washed by Staining Buffer (PBS+1% BSA) in round bottom 96-well plate. […] (c) Antibody dilutions were added to each well and mixed with the CD3+ T cells, incubated at 4 degrees for 1 hour. […] (d) Cells were spined at 300 g for 3 minutes, then the supernatants were discarded. [0789] (e) Cells were washed with Staining Buffer. [0790] (f) Step (d) was repeated, and the cells were incubated with secondary antibody in Staining Buffer for 0.5 hours at 4 degrees. [0791] (g) After incubation, step (d)-(e) were repeated. [0792] (h) Cells were resuspended in Staining Buffer and fluorescence signals were recorded by flow cytometry.

Experiment [3] deals with T2, GPRC5D (G-protein coupled receptor family C group 5 member D), human, on multiple myeloma cell lines (human, UniProt Q9NZD1 1-345).
T2 construct: whole, on cells; Target as carried by MM.1S, MOLP-8, L363 and RPMI8226 cells
The experiment is described as follows: FACS, MM.1S cells. Here is the method:
as §1
(§2) The binding affinities of the generated humanized Fab-scFv-Fab bispecific antibodies to different multiple myeloma cell lines were evaluated by FACS analysis. The protocol for FACS analysis is identical to that described in Example 3.2, except that different cells were used in this example, i.e., multiple myeloma cell lines (MM.1S, […], L363 and RPMI 8226) were used in this example.

In experiment [4] the target is T2, GPRC5D (G-protein coupled receptor …). Briefly: FACS, MOLP-8 cells. Here is the method:
as §1, §2

For experiment [5] the target is unchanged. Briefly: cell-based or functional assay.
Experiment [6] has the same target. Briefly: cell-based or functional assay. This is another data set of the same source.

T2 sequence (Q9NZD1 whole entry): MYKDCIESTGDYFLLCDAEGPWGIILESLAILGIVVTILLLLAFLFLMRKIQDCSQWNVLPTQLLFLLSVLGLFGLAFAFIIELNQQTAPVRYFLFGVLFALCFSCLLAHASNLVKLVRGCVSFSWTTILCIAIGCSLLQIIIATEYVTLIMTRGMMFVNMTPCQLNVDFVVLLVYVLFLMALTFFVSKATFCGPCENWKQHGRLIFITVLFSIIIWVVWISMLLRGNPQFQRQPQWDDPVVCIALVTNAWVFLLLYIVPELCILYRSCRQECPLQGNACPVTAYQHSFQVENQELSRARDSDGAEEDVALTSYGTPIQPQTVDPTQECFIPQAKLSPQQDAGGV
T1 sequence (P07766 23-207, chain 1 of 3): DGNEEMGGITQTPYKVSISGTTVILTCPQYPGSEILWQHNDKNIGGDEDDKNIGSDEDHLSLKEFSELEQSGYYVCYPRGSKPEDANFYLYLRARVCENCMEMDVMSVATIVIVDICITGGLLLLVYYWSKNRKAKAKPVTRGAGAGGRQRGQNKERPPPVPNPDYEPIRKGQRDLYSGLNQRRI
T1 sequence (P04234 22-171, chain 2 of 3): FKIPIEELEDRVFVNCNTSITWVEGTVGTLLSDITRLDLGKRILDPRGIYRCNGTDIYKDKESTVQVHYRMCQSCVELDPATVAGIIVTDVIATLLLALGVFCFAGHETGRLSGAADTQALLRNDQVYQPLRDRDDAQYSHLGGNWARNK
T1 sequence (P09693 23-182, chain 3 of 3): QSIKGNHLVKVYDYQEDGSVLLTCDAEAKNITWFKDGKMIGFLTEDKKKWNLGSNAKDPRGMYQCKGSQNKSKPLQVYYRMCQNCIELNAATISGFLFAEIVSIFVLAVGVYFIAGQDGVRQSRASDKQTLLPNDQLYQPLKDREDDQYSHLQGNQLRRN

B1: JNJ-64407564 (bispecific antibody, V domains shown)
VH 1: QVQLVQSGAEVKKPGASVKVSCKASGYSFTGYTMNWVRQAPGQGLEWMGLINPYNSDTNYAQKLQGRVTMTTDTSTSTAYMELRSLRSDDTAVYYCARVALRVALDYWGQGTLVTVSS
VL 1: DIQMTQSPSSLSASVGDRVTITCKASQNVATHVGWYQQKPGKAPKRLIYSASYRYSGVPSRFSGSGSGTEFTLTISNLQPEDFATYYCQQYNRYPYTFGQGTKLEIK
VH 2: EVQLVESGGGLVQPGGSLRLSCAASGFTFNTYAMNWVRQAPGKGLEWVARIRSKYNNYATYYAASVKGRFTISRDDSKNSLYLQMNSLKTEDTAVYYCARHGNFGNSYVSWFAYWGQGTLVTVSS
VL 2: QTVVTQEPSLTVSPGGTVTLTCRSSTGAVTTSNYANWVQQKPGQAPRGLIGGTNKRAPGTPARFSGSLLGGKAALTLSGVQPEDEAEYYCALWYSNLWVFGGGTKLTVL
notes: construct per WO2018017786A2; also called benchmark antibody
As for B1, the “MFI (50 µg/ml)” value in experiment [1] was determined as 1030 MFI. Further, in experiment [2], the response was half-maximal at 11.4 nM (EC50) and the “Top (MFI)” value is 534 MFI.

B2: Bis-40E9-L2H3-Y54G.H (bispecific antibody)
heavy: EVQLVQSGAEVKKPGASVKVSCKASGYTFTSYVIHWVRQAPGQGLEWMGYFNPYNDGTKYNEEFKGRVTLTSDKSTSTAYMELRSLRSDDTAVYYCARGGVRRYFDVWGQGTTVTVSS
heavy (part 1 of 2): EVQLVQSGAEVKKPGASVKVSCKASGYTFTSYVIHWVRQAPGQGLEWMGYFNPYNDGTKYNEEFKGRVTLTSDKSTSTAYMELRSLRSDDTAVYYCARGGVRRYFDVWGQGTTVTVSS
heavy (part 2 of 2): GGGGSGGGGSEVQLVQSGAEVKKPGSSVKVSCKASGYTFSSYVIHWVRQAPGQCLEWMGYINPGNDVIKYNEKFKGRVTLTSDKSTSTAYMELSSLRSEDTAVYYCARDSYYSYDGFAYWGQGTLVTVSSGGGGSGGGGSGGGGSGGGGSEIVLTQSPDFQSVTPKEKVTITCSASSSVSYMHWYQQKPDQSPKRLIYDTSKLASGVPSRFSGSGSGTDFTLTINSLEAEDAATYYCQQWSSNPPTFGCGTKVEIKGGGGSGGGGS
light: DIQMTQSPSSLSASVGDRVTITCRASQDIGSNLNWLQQKPGKAIKRLIYATFGLDSGVPSRFSGSRSGTDFTLTISSLQPEDFATYYCQQYASFPYTFGGGTKVEIK
notes: Fab-scFv-Fab (2+1), LALA; not shown: CH1; CL; CH2-CH3 with L234A, L235A; heavy chain constant region with L234A, L235A
With B2, in experiment [3], the EC50 was found to be 8.93 nM and the “Top (MFI)” value is 1330 MFI. In addition, in experiment [4], the EC50 turned out to be 0.398 nM and the “Top (MFI)” value came out at 952 MFI. Besides, in experiment [5], the “IC50 (nM), T-Cell Dependent Cytotoxicity, MM.1S” value (from here on “IC50 (nM) … MM.1S”) worked out at 0.00726 nM; the “IC50 (nM), T-Cell Dependent Cytotoxicity, MOLP-8” value (from here on “IC50 (nM) … MOLP-8”) was found to be 0.00117 nM; the “IC50 (nM), T-Cell Dependent Cytotoxicity, RPMI8226” value (shortened to “IC50 (nM) … RPMI8226”) was 0.0453 nM; the “Top (%), T-Cell Dependent Cytotoxicity, MM.1S” value (from here on “Top (%) … MM.1S”) came out at 75.5%. In experiment [5], the “Top (%), T-Cell Dependent Cytotoxicity, MOLP-8” value (“Top (%) … MOLP-8” below) was 68.7% and the “Top (%), T-Cell Dependent Cytotoxicity, RPMI8226” value (“Top (%) … RPMI8226” below) worked out at 10.4%. For the same molecule, in experiment [6], the “EC50 (nM), luciferase assay, L363” value stood at 0.0525 nM; the “EC50 (nM), luciferase assay, MM.1S” value worked out at 0.0506 nM; the “EC50 (nM), luciferase assay, MOLP-8” value came out at 0.0455 nM; the “Top (RLU), luciferase assay, L363” value came out at 776 RLU. Also, in experiment [6], the “Top (RLU), luciferase assay, MM.1S” value was 5840 RLU and the “Top (RLU), luciferase assay, MOLP-8” value was found to be 1060 RLU. Besides, the “MFI (50 µg/ml)” value in experiment [1] worked out at 137 MFI.

B3: Bis-40E9-L2H3-D105R.H (bispecific antibody)
heavy 1: not shown
heavy 2: EVQLVQSGAEVKKPGASVKVSCKASGYTFTSYVIHWVRQAPGQGLEWMGYFNPYNDGTKYNEEFKGRVTLTSDKSTSTAYMELRSLRSDDTAVYYCARGGVRRYFDVWGQGTTVTVSSASTKGPSVFPLAPSSKSTSGGTAALGCLVKDYFPEPVTVSWNSGALTSGVHTFPAVLQSSGLYSLSSVVTVPSSSLGTQTYICNVNHKPSNTKVDKKVEPKSCGGGGSGGGGSEVQLVQSGAEVKKPGSSVKVSCKASGYTFSSYVIHWVRQAPGQCLEWMGYINPYNDVIKYNEKFKGRVTLTSDKSTSTAYMELSSLRSEDTAVYYCARDSYYSYRGFAYWGQGTLVTVSSGGGGSGGGGSGGGGSGGGGSEIVLTQSPDFQSVTPKEKVTITCSASSSVSYMHWYQQKPDQSPKRLIYDTSKLASGVPSRFSGSGSGTDFTLTINSLEAEDAATYYCQQWSSNPPTFGCGTKVEIKGGGGSGGGGSDKTHTCPPCPAPEAAGGPSVFLFPPKPKDTLMISRTPEVTCVVVDVSHEDPEVKFNWYVDGVEVHNAKTKPREEQYNSTYRVVSVLTVLHQDWLNGKEYKCKVSNKALPAPIEKTISKAKGQPREPQVCTLPPSREEMTKNQVSLSCAVKGFYPSDIAVEWESNGQPENNYKTTPPVLDSDGSFFLVSKLTVDKSRWQQGNVFSCSVMHEALHNHYTQKSLSLSPGK
light: DIQMTQSPSSLSASVGDRVTITCRASQDIGSNLNWLQQKPGKAIKRLIYATFGLDSGVPSRFSGSRSGTDFTLTISSLQPEDFATYYCQQYASFPYTFGGGTKVEIKRTVAAPSVFIFPPSDEQLKSGTASVVCLLNNFYPREAKVQWKVDNALQSGNSQESVTEQDSKDSTYSLSSTLTLSKADYEKHKVYACEVTHQGLSSPVTKSFNRGEC
notes: Fab-scFv-Fab (2+1), LALA
On to B3, for which, in experiment [3], it took 6.16 nM to reach a half-maximal effect (EC50) and the “Top (MFI)” value was found to be 1070 MFI. Also, in experiment [4], the concentration for a half-maximal effect (EC50) is 0.21 nM and the “Top (MFI)” value stood at 1090 MFI. For the same molecule, in experiment [5], the “IC50 (nM) … MM.1S” value came out at 0.00579 nM; the “IC50 (nM) … MOLP-8” value worked out at 0.00463 nM; the “IC50 (nM) … RPMI8226” value stood at 0.0366 nM; the “Top (%) … MM.1S” value was 75.7%. In experiment [5], the “Top (%) … MOLP-8” value came out at 70.1% and the “Top (%) … RPMI8226” value amounted to 12.4%. In experiment [6], the “EC50 (nM), luciferase assay, L363” value was 0.0397 nM; the “EC50 (nM), luciferase assay, MM.1S” value worked out at 0.423 nM; the “EC50 (nM), luciferase assay, MOLP-8” value stood at 0.0423 nM; the “Top (RLU), luciferase assay, L363” value came out at 942 RLU. Further, in experiment [6], the “Top (RLU), luciferase assay, MM.1S” value amounted to 5240 RLU and the “Top (RLU), luciferase assay, MOLP-8” value is 1080 RLU. The “MFI (50 µg/ml)” value in experiment [1] came out at 247 MFI.

B4: Bis-40E9-L2H3-Y101F.H (bispecific antibody)
heavy 1: not shown
heavy 2: EVQLVQSGAEVKKPGASVKVSCKASGYTFTSYVIHWVRQAPGQGLEWMGYFNPYNDGTKYNEEFKGRVTLTSDKSTSTAYMELRSLRSDDTAVYYCARGGVRRYFDVWGQGTTVTVSSASTKGPSVFPLAPSSKSTSGGTAALGCLVKDYFPEPVTVSWNSGALTSGVHTFPAVLQSSGLYSLSSVVTVPSSSLGTQTYICNVNHKPSNTKVDKKVEPKSCGGGGSGGGGSEVQLVQSGAEVKKPGSSVKVSCKASGYTFSSYVIHWVRQAPGQCLEWMGYINPYNDVIKYNEKFKGRVTLTSDKSTSTAYMELSSLRSEDTAVYYCARDSFYSYDGFAYWGQGTLVTVSSGGGGSGGGGSGGGGSGGGGSEIVLTQSPDFQSVTPKEKVTITCSASSSVSYMHWYQQKPDQSPKRLIYDTSKLASGVPSRFSGSGSGTDFTLTINSLEAEDAATYYCQQWSSNPPTFGCGTKVEIKGGGGSGGGGSDKTHTCPPCPAPEAAGGPSVFLFPPKPKDTLMISRTPEVTCVVVDVSHEDPEVKFNWYVDGVEVHNAKTKPREEQYNSTYRVVSVLTVLHQDWLNGKEYKCKVSNKALPAPIEKTISKAKGQPREPQVCTLPPSREEMTKNQVSLSCAVKGFYPSDIAVEWESNGQPENNYKTTPPVLDSDGSFFLVSKLTVDKSRWQQGNVFSCSVMHEALHNHYTQKSLSLSPGK
light: DIQMTQSPSSLSASVGDRVTITCRASQDIGSNLNWLQQKPGKAIKRLIYATFGLDSGVPSRFSGSRSGTDFTLTISSLQPEDFATYYCQQYASFPYTFGGGTKVEIKRTVAAPSVFIFPPSDEQLKSGTASVVCLLNNFYPREAKVQWKVDNALQSGNSQESVTEQDSKDSTYSLSSTLTLSKADYEKHKVYACEVTHQGLSSPVTKSFNRGEC
notes: Fab-scFv-Fab (2+1), LALA
For the molecule B4, in experiment [3], the EC50 was 10.1 nM and the “Top (MFI)” value was 1150 MFI. In experiment [4], the EC50 was 0.466 nM and the “Top (MFI)” value was found to be 876 MFI. Besides, in experiment [5], the “IC50 (nM) … MM.1S” value amounted to 0.00723 nM; the “IC50 (nM) … MOLP-8” value is 0.00499 nM; the “IC50 (nM) … RPMI8226” value amounted to 0.0226 nM; the “Top (%) … MM.1S” value worked out at 62.8%. Also, in experiment [5], the “Top (%) … MOLP-8” value is 77.1% and the “Top (%) … RPMI8226” value came out at 12.2%. Also, in experiment [6], the “EC50 (nM), luciferase assay, L363” value amounted to 0.155 nM; the “EC50 (nM), luciferase assay, MM.1S” value is 0.0398 nM; the “Top (RLU), luciferase assay, L363” value turned out to be 1600 RLU; the “Top (RLU), luciferase assay, MM.1S” value came out at 5630 RLU. Further, in experiment [6], the “Top (RLU), luciferase assay, MOLP-8” value was 1470 RLU. Besides, the “MFI (50 µg/ml)” value in experiment [1] worked out at 207 MFI.

The values above are taken from patent publication US20260193348A1 (ANTENGENE BIOLOGICS, published 2026).
